The experiment has as its target Rhinovirus serotype HRV-39 (human rhinovirus 39). Description: cell-based or functional assay.

The text below walks through data of patent US20080219999A1.

On to “IC1-5D/IgA (ICAM/IgA fusion, gift of Dr. Tim Springer; Martin, et al., 1993) (from UniProt P05362 28-480; P01876 103-353) (Fc fusion)”, for which the IC50, cytopathic effect (CPE) assay on HeLa S3 cells worked out at 0.12 µg/mL and the fold lower IC50 than soluble ICAM-1, CPE assay on HeLa S3 cells stood at 11.3 fold.
“soluble human ICAM-1 (from UniProt P05362 28-480)” had an IC50, cytopathic effect (CPE) assay on HeLa S3 cells of 1.35 µg/mL.
